Data reported in patent publication US20030166537A1, “Use of GDNF for treating corneal defects” (Biopharm Gesellschaft Zur Biotechnologischen Entwicklung …, priority 1999, published 2003).

Columns and labels:
corneal ulcer = test: topical therapy of corneal ulcer in a human patient; type: in vivo; conditions: one patient
Protocol: […] Corneal ulcer accompanied by massive inflammation on the left. Epithelial defect of 3.8×3.0 mm in size, furthermore ulcus of corneal stroma in form of a punched-out defect comprising 80% of the thickness of the cornea. No pain sensation of the cornea and significant accompanying inflammation of the eye. The patient was treated with recombinant human (rh) GNDF (0.2 mg/ml) (25 μl/dose) in 2 hours intervals for 48 hours, then the doses were reduced to 20 μl 6 times per day. After healing of the epithelium the concentration was reduced to 0.1 mg/ml, and 20 μl doses were given 5 times per day. For adminstration, lyophilized recombinant human GDNF was diluted in sterile balanced salt solution (Alcon, Freiburg Germany).

[1] = test system: ERK1, ERK2, JNK1 and JNK2; test: western blot of phosphorylated MAP kinases in cultured human corneal stromal keratocytes; type: cell-based
Protocol: In order to evaluate the effect of GDNF and other neurotrophic factors on the activation of signal transduction pathways in cultured corneal epithelial and stromal keratocytes, western blots were performed for detecting an accumulation of phosphorylated MAP kinases ERK and JNK in the presence of GDNF, NGF and BDNF. Human stromal keratocytes were cultured in RPMI 1640 medium containing L-glutamine (glutaMAX) or DMEM with 10% FBS for one day and starved in serum-free medium for another day. Cultures were then washed with PBS and incubated in serum-free DMEM without additives or with recombinant human GDNF (200 ng/ml), recombinant human NGF (200 ng/ml) and recombinant human BDNF (200 ng/ml) (all obtained from R & D Systems, Mineapolis, Minn., USA) for 30 min. Some cultures were incubated with an inhibitor of MAP kinases (PD 98059, Torcris Cookson Ballwin, Mo., USA) at 100 μM for 1 h prior to exposure to neurotrophines. After washing with PBS, culture cells were solubilized in lysis buffer containing 50 mM Tris-Cl (pH 8.0), 150 mM NaCl, 0.02% sodium azide, 100 μg/ml PMSF, 1% Triton X-100 and a mixture of several protein inhibitors (Complete®, Boehringer Mannheim) (one tablet/50 ml buffer). 50 μg total protein per lane was fractionated by a 10% STS-MOPS NUPAGE Bis-tris gel (NOVEX, San Diego, Calif., USA) and blotted onto nitrocellulose membrane. Membranes were stained with diluted polyclonal antibodies against ERK1, ERK2, JNK1 and JNK2 (Santa Cruz Biotechnology, Santa Cruz, Calif., USA). Also a polyclonal antibody was used which recognizes the […] form of either ERK1 and ERK2 which was raised against the catalytic core of the phosphorylated threonine residue 183 and tyrosine residue 185 of mammalian ERK2. Similarily, a polyclonal antibody recognizing the phosphorylated form of JNK1 and JNK2 was used (both from Promega). In the last step the membranes were visualized with the ECL western blot analysis system (Amersham).

Ret = target: T1, Ret (Homo sapiens, UniProt P07949); test: immuno-precipitation and western blot of tyrosine-phosphorylated Ret in cultured corneal epithelial cells; type: cell-based; conditions: GDNF 200 ng/ml vs serum-free control cultures
T1 construct: The level of phosphorylated Ret (approximately 150 kD) in cultured corneal epithelial cells (control) was low prior to addition of GDNF; endogenous in cells; host or cells: SV40-transformed human corneal epithelial cell line (Araki-Sasaki et al., 1995)
T1 sequence (P07949 29-1114): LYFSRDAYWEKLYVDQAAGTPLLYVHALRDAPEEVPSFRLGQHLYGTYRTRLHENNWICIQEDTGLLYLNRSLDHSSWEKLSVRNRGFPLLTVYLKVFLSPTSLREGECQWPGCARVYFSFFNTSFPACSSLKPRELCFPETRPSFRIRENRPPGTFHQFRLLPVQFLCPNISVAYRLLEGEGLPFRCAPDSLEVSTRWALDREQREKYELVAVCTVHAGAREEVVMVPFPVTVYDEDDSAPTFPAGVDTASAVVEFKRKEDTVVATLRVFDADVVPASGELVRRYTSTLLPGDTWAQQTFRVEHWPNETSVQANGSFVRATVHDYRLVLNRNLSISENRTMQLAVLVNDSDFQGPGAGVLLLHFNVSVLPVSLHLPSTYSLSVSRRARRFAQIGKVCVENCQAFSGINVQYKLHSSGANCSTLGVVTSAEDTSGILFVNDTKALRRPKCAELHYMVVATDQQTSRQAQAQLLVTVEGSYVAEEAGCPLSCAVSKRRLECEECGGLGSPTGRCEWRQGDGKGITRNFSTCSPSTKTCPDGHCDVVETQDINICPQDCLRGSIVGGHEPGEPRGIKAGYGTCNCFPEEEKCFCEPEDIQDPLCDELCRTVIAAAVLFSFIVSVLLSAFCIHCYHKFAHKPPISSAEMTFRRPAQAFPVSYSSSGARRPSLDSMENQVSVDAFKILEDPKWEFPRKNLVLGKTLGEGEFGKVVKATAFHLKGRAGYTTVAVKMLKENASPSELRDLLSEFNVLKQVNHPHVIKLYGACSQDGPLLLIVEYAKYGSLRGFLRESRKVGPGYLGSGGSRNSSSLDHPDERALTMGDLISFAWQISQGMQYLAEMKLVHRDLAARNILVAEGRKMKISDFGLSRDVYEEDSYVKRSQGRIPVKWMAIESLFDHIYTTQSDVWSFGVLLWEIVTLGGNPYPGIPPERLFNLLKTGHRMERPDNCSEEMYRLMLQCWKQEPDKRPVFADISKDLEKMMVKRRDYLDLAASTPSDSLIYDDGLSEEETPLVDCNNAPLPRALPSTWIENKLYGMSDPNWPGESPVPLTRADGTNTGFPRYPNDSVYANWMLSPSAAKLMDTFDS

[2] = test system: corneal epithelial cells from the SV40 transformed cell line; test: in vitro wound healing assay (scratch wound), cell line; type: cell-based, human; conditions: 250 ng/ml; 18 h; control 20%±4.5
Protocol: For in vitro wound healing assays primary corneal epithelial cells and cells from the corneal epithelial cell line were seeded at a density of 5×10^5 onto 60 mm plastic dishes with 2 mm grid (Sarstedt, Numbrecht, Germany) and cultured for 2 days until subconfluency. For experiments with artemin primary cultured rabbit corneal epithelial cells were used. These cells had been isolated with Dispase (1,2 U/ml) and trypsin/EDTA. Rabbit cells had been cultured in medium 500 with additives (Cascade Biologies).
The cell layer was injured under the microscope by inducing several parallel scratches with a soft plastic cell scrubber (Falcon, Becton and Dickinson, Heidelberg, Germany). The tip of the scrubber was cut and measured about 1 mm and consequently the width of the scratch in the cell layer was also about 1 mm. Selected areas in the dishes were marked with a very fine marker pen and consecutive images were taken at different time points at 5×magnification under an inverted phase contrast microscope (Axiovert 25, Zeiss, Jena, Germany) equipped with a video camera. Following the experimental injury dishes were incubated in SHEM medium either containing no growth factors (control) or containing either GDNF (250 ng/ml) (recombinant human GDNF expressed in E. coli), NGF (250 ng/ml) (Boehringer Mannheim, Germany) or EGF ([…]). For experiments investigating artemin cells were cultured in medium 500 without additives and 250 ng artemin was added. For each condition four representative areas were evaluated within three dishes. The mean diameter of the scratch in each representative area was set as 100% at the beginning of the experiment. 18 hours later the mean diameter of the same scratch was calculated again and expressed in percent of the diameter at the beginning of the experiment.

[3] = rhGDNF 0.2 mg/ml eye drops, topical

B1: GDNF: recombinant human GDNF having the amino acid sequence of human wild-type GDNF (GenBank L19063, L15306) (protein)
chain: SPDKQMAVLPRRERNRQAAAANPENSRGKGRRGQRGKNRGCVLTAIHLNVTDLGLGYETKEELIFRYCSGSCDAAETTYDKILKNLSRNRRLVSDKVGQACCRPIAFDDDLSFLDDNLVYHILRKHSAKRCGCI
Q: For B1, which “start of wound healing” value (corneal ulcer; [3]) is on record?
A: 2 days

Q: What about the “time to complete wound healing of the epithelium” value (corneal ulcer; [3]) of the same molecule?
A: 3 weeks

Q: What about the “inflammation and subjective afflictions after healing of the epithelium” value (corneal ulcer; rhGDNF topical) of the same molecule?
A: significant reduction

Q: What about the “thickness of the stroma” value (corneal ulcer; rhGDNF topical) of the same molecule?
A: continuous increase

Q: And the “activated JNK2” value [1]?
A: not induced

Q: And the “phosphorylation of ERK1 and ERK2” value ([1]; 200 ng/ml factor vs control)?
A: induced ERK1 to a limited extent

Q: And the “phosphorylation of JNK1” value ([1]; vs serum-free medium)?
A: weakly induced

Q: What about the “time to induction of tyrosine phosphorylation of Ret” value (Ret) of the same molecule?
A: ≤ 5 min

Q: And the “gap in the cell monolayer filled” value [2]?
A: 30%±6.9
